Measured values published in a protein production outcome set (Wang et al. 2014).

Assay: label from the status in PepcDB records

MLSNGKCRNNKNQVNGSLSPKMFYMRINDQIVTKYHKILTKKIREVVGTLQQPWESRRIKQAPQQPQETTSATITCDRSHTNYDLCSINGSCNLDLKTGTLTLMDPTSAPLVEKIRPYPKKADNWIMPRIRELTLTSGPLGLPRSCDITHDLPAIVFSAGGYTGSIYHDLMDGFIPLFITANSVYPDRDFIPVVVNAKEWWMPKYIDILGTFSKHKPILLLDKESVATTHCFTSAIVGLITHWPMTIDPTQIPNSKSLVDFHNLLEKAFTTNISTPKTHKPRLMLVSRYGNIGRVILNEQEIKEMLEDVGFEVIIFRPSKTTNLKEAYKLIKSSHGMVGVHGAALTHLLFLRPGSIFVQVVPLGLGWASKPCYESPAKTMKLEYLEYKVNVEESSLIEKYNRDDLVLKDPIAYRGMDWNATKMKVYLKEQDVSLDVNRFRKHMNEAYKKAKIFMDING
protein production: failed

MSMATPSSAQRFNDRVAAYVRYRPSYPPQLLRWLHGELGVTPATAVADIGAGTGISSRLFLEAGYAVTAVEPNQAMREAALQWLAEFPKFQAIDGTAEATGLADASVGLVSAAQAFHWFDMQAVRDEWARILQPGGLAVVYWNSRELDSTAFLRGYEQLLLDYGTDYSAVAERYQDDATMQAWFGEGFRAMARFPNVQRLDFESLRGRLLSSSYAPLAHDPRHAPMLAALRTLFDAYAHDGLIDFQYQTRVFAGRLN
protein production: failed

MMNTPESRLVAAGLELPEVAAALGNYEPYSIVGSQLMTSGQFPYLQGKLLYQGQLGADYTVSEGYAACRLATLNAIAQLKQACGELSRIKQIYRLEGVLNVHQSCIEHPKALDGASDLLLEIFGEAGRHSRMIWTNPVMPLNSLCLVYLFAEL
protein production: not failed

QEVSWTQYTQRKFQKSRQPRPSSQYNQRLFGGDMEKFIQSSGQPVPLVVESCIRFINLNGLQHEGIFRVSGAQLRVSEIRDAFERGEDPLVEGCTAHDLDSVAGVLKLYFRSLEPPLFPPDLFGELLASSELEDTAERVEHVSRLLWRLPAPVLVVLRYLFTFLNHLAQYSDENMMDPYNLAVCFGPTLLPVPAGQDPVALQGRVNQLVQTLIVQPDRVFPPLTSLPGPVYE
protein production: failed

MMAQRSLFQCESSVDEELDRMEIRTLTRYGENRRRDKGVPIECDCNAKVVVVTSLDPVTTGKLFFSCPYEISDGPGQGCGFKRWWTVALCDEFDMIKEETTEMKKDLEAANKRVESLAEKIFLMEKKFETLEKKYESLNKYL
protein production: failed

RNGGTIGGADIIAKLLEDKLGLQLNQALLGIDLFVMIVSLTYISLPQMMYALIASFMYGQIVRLVQQGGYSARGIFIVSEQAEKIARFIMDELGRGVTYLTGEGAYSGRRKKVIYVALGRRDIRELKAFLTQVDPNAFITYFDVNEVNSPEFLTIKSKYHKKRK
protein production: failed

MKKQSLVATSLLAAFITGACTADTNIQAKPIVSQVKAKKLIKPNVLFIAVDDLRVQYGPYDFDKAITPNIDRLVNQGVAFTQAYSNVPVCGASRASMLTGVRPTINRFVAFESADKVAPWAPSIAKVFSDNGYTTYSLGKIFNNLTDHANDWSEFPWRPEGAKNEDSTSGNKKQASLLSRHDYVTSDGVAMAKKGIKNHPAFEKADVVDDAYKNGKIAKRAISDLKRLKKAGKPFFLAVGLKKPHLPFNAPSKYWDLYDESTIELTKIPLKAKDSPSQSDHNWNELRNYGHDGAMPKKGKMSDEMARKLIHGYHAATSYSDALIGNILTELESLGLEENTIVVLWGDHGWSLGEHTHWAKHSSYDVTNHIPLIIKVPGMTNGEFSKGLVESVDIFPTLTQLAGLPAPSSLQGDSLVPMLKNPQATVNDAVYPRWKNADSIRTPNYMYTEWRNKKNNKVIARMLFDHRVDPRETINVAENFKYAQVVVDLHNQLAAHIAQVEK
protein production: failed

MNIVYLLMLSLILFSIGLYGISTSNVGIKMLISLEIIINSAILAGVSISSFYFSTGVLIFVLFAIAIGVIESAVGIAILTMVYKKYGRITISLLKEIKW
protein production: failed

MLTAPPKEAARPTLMPRAQSYKDLTHLPAPTGKIFVSVYNIQDETGQFKPYPASNFSTAVPQSATAMLVTALKDSRWFIPLERQGLQNLLNERKIIRAAQENGTVAINNRIPLQSLTAANIMVEGSIIGYESNVKSGGVGARYFGIGADTQYQLDQIAVNLRVVNVSTGEILSSVNTSKTILSYEVQAGVFRFIDYQRLLEGEVGYTSNEPVMLCLMSAIETGVIFLINDGIDRGLWDLQNKAERQNDILVKYRHMSVPPESLEHHHHHH
protein production: failed

MERKISDEECPVRKSMQIFAGKWTLLIIFQINRRIIRYGELKRAIPGISEKMLIDELKFLCGKGLIKKKQYPEVPPRVEYSLTPLGEKVLPIIDEIAKFGMENL
protein production: not failed

MSKVALFSHVSPDGDCIGSMLGIGLALEALGKEVAMFNPDPIPRNLSFLPGVDKITQSMPDPLPETLLFVDCADLQRVQLQREDLPADAVILNLDHHISNQNFGRINWVDSQAAASGELAYALVRRLNVELTQEIAANFYTALLTDTGSFKYANTTAKTHQIAGELMELEHHHHHH
protein production: failed

MMNEPQVSFITVCYNGFKDTCELIESLQTHVHSVSYEIIVVDNASREDEATKIKELYSDIVTLRSESNLGFSGGNNLGIRVAKGAYIFLINNDTYVESDGFHYLTERLESQKNIGAVSPKIRFAFPPQNIQFAGFTSLSAITIRNEMTGFGCPDDGTFDTPHTTPYLHGAALMVKREVIEKVGEMPEIFFLYYEEMDWCTQMTNAGYELWYEPRCTVFHKESQSTGQFSKLRTFYMTRNRLLYTRRNRKGAQRLLSILYQSTIAAGKNSLQFAVKGRFDLFAAVWKGVVRSFSVTSPIRLEHHHHHH
protein production: failed

MFKTVIIMLMAVSAGTIGDILLAKGMKELGDLSAMNLRGILNVAGQALTSPKLIFGTAMLAIFFFLWLAVLSWEDLSVALPMQALNYVLVAFLSQWFLGETVSPLRWTGTIMVCVGVMLITKSGTP
protein production: failed

MKKPSSTPAPRLASLDILRGFDLFLLVFFQPVLWTLAHQLNLPWLNSILFQFDHEVWEGFRFWDLVMPLFLFMTGASMPFSFSKFKDNPDKGPVYRKIIKRFILLFIFGMIVQGNLLGLDPKHLYLYSNTLQAIATGYLIAAIIQLHCNFRWQLIVTALLLLIYWIPMTFLGDFTPEGNFAEKVDRLVLGHFRDGVFWNEDGSWSFSAHYNYTWIWSSLTFGATVMLGAFAGKIMKAGKDNRRKVVQTLLIIGISLIAFSLIWSLQMPIIKRLWTSSMTLFSGGLCFLLMGAFYYRIDYKGHSRGLNWLKIYGMNSITAYILGEVINFRCIAASVSYGLEQYLGGYYQVWLSFANYLIVFLILRIMYRQKIFLKI
protein production: failed

MMRKLLTALPDGGVSALSGLQDAQTVGRISVAPSGRKFLLLTIVLFLITFATHAQVVDTWRFDNPQQQEKALSIAGQLRCPQCQNQNLLESNAPVAVSMRHQVYSMVAEGKSEAEITAWMTDRYGDFVRYNPPLNEQTLLLWALPCLLLLLVGVVVWRVRKRQHAEEGEQ
protein production: failed

MIRGGRNNITSAPAFSKDAKKLLLCTANTVSVYSVATGLKITSLEDHTAPVTSVIVDPSSDETVSYCWTSSLDGKIRIWEFSAPKLLKIFDTHLPIHSLVMIPAQVSHSVIAYVSVEDYSSVSKDLFGQIRRYDLTQDPLHSGDTLKEMEEPKPIVLSPSGEFFGVCHNCSIHIWNVASEHLMPKETTLHHTELITVFAFHPNQRILAAGDVTGRVLIWKDNGIGEFTSVKTEDDTESCTTFNWHSAEVTVLNFSSDGALLYSGVKAGDFVVWELGTGKKQLLPKIGSPLLYFIFSSDSTLSSVICADNQIHLLKMPSMEILRTISGIKPPTPERHGFICYVKTRDICLTRTVSIDRSSGIAAFCTANHRVQLYNLLSDHDISEVQICDHHPDDDDQVRVLVTAVALSRNGSVMTTAEARFAASNFSEGIVSLKFWVFVPDSKTFSLSTVINQPHREAAITAIALNPARSMAVSISSAGDFKIWVCSSDKNLTPEDSNWICHGVGSYKRTPITAAVFSGDGSCLALAAKTVITIWHPLKNELLYVVGKANAPIMELSFTGGGFLIAASHGSTPHLSVWDLMTFCLSWSYRLYIEAIATEVDSPYFAVLTWLPESDRLVKSNEQIFRGKDGAILLFDGSGPKPVAIWTVMKARGGTLSFVEDGKKSQPLLAYVNRSHEYVLFDPYSDEKLETSAIDYEVFLAAISKKKKRSRKKALMSEKPWETMFCGSTLNFPPFPDLCASFFSSRMQKEVCERADRQPERHSS
protein production: failed

MKLSVCTITFRHHLLCFSEIVEWTQRNGFDGVELWGAHARGLMRTHPEYDADWLRSYGLSVPMLSDYLPTDGDITDTRHRAIELCRIAQHWSARKIRTFAGNRPSAQLSREQRRALAGRIGEIAGIVHDHGIRLLVETHPNTLADNVDSTLGLLADANHPGLGINFDALHVWEGGDDPVLARRTLADFIGHYHLKNVRSRDELGVFAPENVYSAAGSRDGMVPLFDGAMDYEGFLASLADETDAEASLEWFGHDCFETLARDRLAIFARSISTRGRRGSAGTQQARLAESRAAGRAASSKGPSCI
protein production: failed

MSVDTTVKNRVYPAIPPTQLPEFETIFGHPKPLWMLFMAEFWERFAFYGIRWALTLYIVTQFFDGNAIGEGNANSTYGAYLALVYASAIFGGFIADRIIGYQRSIIIGAVIMACGLFLITVPSRTMFEIGLATIVIGNGLFKPNISSLVGQLYAEGDTRRDRGFTIFYMGINAGSLISPLITSWLAGQVFGTPMQQNYKVVFIASGIGMFLSLLWFWIGKRQLKGIGLSPKGGESIFRTFLIVFGALLAIPLAYLLLAKLNATTLAWILGLLFAVLATLLIVTALRNGKIQRDRVIAMLIIFVFNVMFWMFFEQAGSSFNFLAKNIVDRQILSNWEFPVGWFQSVNPLAIILLAPIIAVIWSLLDKYRIEPSIPRKFSFGLMFNGFGFLILMYALSNLLNASNMIPFWSLIAVYVIQTVGELCLSPIGLSMVTKLAPVRLVGFAMGGWFLSTAIGNNLSGVFASFVSGEEGMTVSSALRGYTFGFWSLIGSGILLFLISPLINRLMHGVK
protein production: failed

MSQFPNRAALWLNKLAPDAPLMSGLCPSVQVTDGQINGESVRFIAVVPDANNHYPRAAGGEVGLLEGWTLAKVVNETIAADADRPVKRPIVAVIDVPSQAYGRREEAFGIHQALAGAAGAYAKARLAGHPVIGLIVGKAMSGAFLAHGYQANRLIAFNDSGVLVHAMGKASAARITLRTVEALEKLAATIPPMAYDVSNYATLGLLSALLDISNPDAPDEGDLSLVSRTLRDAIADARTDTSLKCRLGAENRRSSQLVRDRMRASW
protein production: failed

IIWDWNVERDRIIVHPDMKSLFGTETHKLNGPMQNWISALHHDDRERFQAVLDIILKNKKGRIDQIFRLSSGGGYYHWFSLRARPAMQKDGKITRVIGTIVNITNHKKA
protein production: failed

MRKPKITVIGGGTGSPVILKSLREKDVEIAAIVTVADDGGSSGELRKNMQQLTPPGDLRNVLVAMSDMPKFYEKVFQYRFSEDAGAFAGHPLGNLIIAGLSEMQGSTYNAMQLLSKFFHTTGKIYPSSDHPLTLHAVFQDGTEVAGESHIVDHRGIIDNVYVTNALNDDTPLASRRVVQTILESDMIVLGPGSLFTSILPNIVIKEIGRALLETKAEIAYVCNIMTQRGETEHFTDSDHVEVLHRHLGRPFIDTVLVNIEKVPQEYMNSNRFDEYLVQVEHDFVGLCKQVSRVISSNFLRLENGGAFHDGDLIVDELMRIIQVKK
protein production: not failed

MIGHRPLLAALERGHCASYTFVMKRRNFFRFSALGLLALAGGGLYARRSSASAYYSGPISDHFDGVRFFNPGGTPPGNFMGLLKWRFNGERATWPETYPSPFPFAKPEARIDGRDMRVTFVGHASFLIQTAGLNILVDPVWSQRTSPLSFAGPKRVNPPGIRFEDLPPIDLVLVTHNHYDHLDMETLKRLHVAHKPLFITPLGNDAVIRTGVEAARIKVGDWGDVVETGSVKIHFEPCHHWSARGLNDRSMALWAAFVIETPGGKIYHIGDTGFHEGLNYGAARKKHGEFRLANLPFGAYEPRWFMKGQHQNPAEAVEGMRLCGAAHVCGHHWGTVQLTDEAVDAPLAALKAALTEQGVEESRFRPMRPGEVFDVPSA
protein production: failed
